Measured values: publication PMC8469834

What was measured:
[1] = test system: T1, CadR (Pseudomonas putida KT2440), ORF:5b9d404e; experiment: EMSA; conditions: 10 mM Tris-HCl pH 8.0, 50 mM KCl, 5 mM MgCl2, 5% glycerol, 28 °C 20 min; EMSA 10 nM FAM probe (carbamyl phosphate with CzcR3); footprinting 40 nM probe, about …
T1 sequence: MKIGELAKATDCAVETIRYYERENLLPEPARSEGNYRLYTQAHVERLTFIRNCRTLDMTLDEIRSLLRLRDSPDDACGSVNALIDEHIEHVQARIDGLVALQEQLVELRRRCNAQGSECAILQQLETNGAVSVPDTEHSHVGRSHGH

[2] = test system: T2, CzcR3 (Pseudomonas putida KT2440), ORF:67c4da9b; experiment: DNase I footprinting; conditions: 10 mM Tris-HCl pH 8.0, 50 mM KCl, 5 mM MgCl2, 5% glycerol, 28 °C 20 min; EMSA 10 nM FAM probe (carbamyl phosphate with CzcR3); footprinting 40 nM probe, about …
T2 sequence: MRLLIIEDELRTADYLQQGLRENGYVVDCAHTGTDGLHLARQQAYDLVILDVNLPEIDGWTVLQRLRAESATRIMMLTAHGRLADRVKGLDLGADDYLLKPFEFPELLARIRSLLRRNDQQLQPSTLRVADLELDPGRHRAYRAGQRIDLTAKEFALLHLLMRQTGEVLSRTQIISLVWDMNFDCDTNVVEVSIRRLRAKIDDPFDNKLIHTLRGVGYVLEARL

[3] = test system: T2, CzcR3 (Pseudomonas putida KT2440), ORF:67c4da9b; experiment: EMSA; conditions: 10 mM Tris-HCl pH 8.0, 50 mM KCl, 5 mM MgCl2, 5% glycerol, 28 °C 20 min; EMSA 10 nM FAM probe (carbamyl phosphate with CzcR3); footprinting 40 nM probe, about …
[4] = test system: T1, CadR (Pseudomonas putida KT2440), ORF:5b9d404e; experiment: DNase I footprinting; conditions: 10 mM Tris-HCl pH 8.0, 50 mM KCl, 5 mM MgCl2, 5% glycerol, 28 °C 20 min; EMSA 10 nM FAM probe (carbamyl phosphate with CzcR3); footprinting 40 nM probe, about …
[5] = molecular target: CzcR3, the response regulator of two-component system CzcRS3 (Pseudomonas putida KT2440) (UniProt F6KX51); experiment: electrophoresis analysis; purified His-tagged CzcR3 alone, in vitro; kind of gel and conditions not told in the text (Figure S1)

Substance	binding [1]	binding [2]	binding [3]	binding [4]	stoichiometry N [5]
TGTAAAACGACGGCCAGTTACAGGCGCGGGTTTACTCGCGAAGAGGCCCGAACAGACAGCCAGATAACAGCAGAATTACAAATCCGTTATCTGCACCGCAGGCCTTTTTTCATGCCGTAACATTGGGGCGCTTGACAAAGATGTCACTACAAAGTCAAGAATCGTCCCCTTTCAACATACCGAGCCCCCCATG (double strand) [czcRS3 (czcR3) promoter probe, mutated CadR site]	no binding	–	–	–	–
GATTATCGAACTTATTGGGCGTTGACTGTCCTGTACCCAGCCGTGCAAAGCTGCTTCTGCAACGAACCGCAGTGCGTCATTACAAAATTGTAATCTTGCCGCCACCGCCCCGATAACCAGCCCTTTCTACAGTCCCTGGCCAATGCT (double strand) [czcC2 (czcCBA2) promoter probe]	–	binds	binds	–	–
TGTAAAACGACGGCCAGTTACAGGCGCGGGTTTACTCGCGAAGAGGCCCGAACAGACAGCCAGATAACAGCAGAATTACAAATCCGTTATCTGCACCGCAGGCCTTTTTTCATGCCGTAACATTGGGGCGCTTGACCCTGATGTCACTACAGGGTCAAGAATCGTCCCCTTTCAACATACCGAGCCCCCCATG (double strand) [czcRS3 (czcR3) promoter probe, native]	binds	binds	binds	binds	–
CzcR3, the response regulator of two-component system CzcRS3 (from UniProt F6KX51 1-224) (natural protein)	–	–	–	–	2
GTATCGAAATCATCGTGTCGGGTTGGGTTTCCCAGTATTTACGGGCATTACAAAGCTTTCTTACGAAATTGTAATTTTCTAGCCACCCCTCTGATAGCTACCGCTCATTAGAGTGCCATCACCTAATCAAGTGGGGCTTGGCAGCTGTTTCGGCGTTCTCGCCAAGCTTTATCGAAGTTTGTGCACGAGGACCATCAAAGTGCCCCGGTATAACCGCA (double strand) [czcC1 (czcCBA1) promoter probe]	–	binds	binds	–	–
